Results on one protein are retold here after FireProtDB (doi:10.1021/bi000442n).

Values joined by “and” are separate entries in the source; they are usually repeats but may differ in a detail not shown here. Equal entries are not always repeated.

The conditions of the data set: Mus musculus; pH 7.5; Thermal; CD; KH2PO4-K2HPO4 10 mM; NaCl 0.0 mM; reversible: yes; whole UniProt chain shown.

B1: Signal peptide peptidase wild type, Q9D8V0 (protein)
chain: MDSAVSDPHNGSAEAGTPANGTTRPPSTPEGIALAYGSLLLMALLPIFFGALRSVRCARGKSSSDMPETITSRDAARFPIIASCTLLGLYLFFKIFSQEYINLLLSMYFFVLGILALSHTISPFMNKFFPANFPNRQYQLLFTQGSGENKEEIINYEFDTKDLVCLGLSSVVGVWYLLRKHWIANNLFGLAFSLNGVELLHLNNVSTGCILLGGLFIYDIFWVFGTNVMVTVAKSFEAPIKLVFPQDLLEKGLEADNFAMLGLGDIVIPGIFIALLLRFDISLKKNTHTYFYTSFAAYIFGLGLTIFIMHIFKHAQPALLYLVPACIGFPVLVALAKGEVAEMFSYEESNPKDPAAETESKEESTEASASKRLEKKEK
With B1, the Tm was 43.7 °C and 41 °C.

Broadly, the Tm is the temperature at the midpoint of the melting transition.
